Biological target: TssM-ekto (periplasmic domain of TssM, 386-1129), after TEV cleavage (enteroaggregative Escherichia coli strain 17-2)
Experiment: SEC-MALS; MALS/QELS/UV/RI of the TssM-ekto/TssJ complex; 10 mM HEPES pH 7.5, 150 mM NaCl

Substance “TssJ (enteroaggregative E. coli Sci1 T6SS), residues 2-155 of the processed lipoprotein, fusion and tag cleaved (domain or fragment)” has a stoichiometry N of 1.

Reference: publication PMC3213119
